Residue numbers refer to the chain shown, from its start. Numbers in names are those of the source.
What was measured:
BAK-X complex [1] = assay: DSS cross-linking of BAK-X complex in FL5.12 cells treated with death stimuli; assay type: cell-based; settings: TNFα plus cyclohexamide 5 hours, etoposide (VP16) 24 hours, 10 mM DSS
Procedure: FIG. 1B is an illustration depicting the treatment of FL5.12 cells with either TNFα plus cyclohexamide (CHX) for 5 hours (lane 3), etoposide (VP16) for 24 hours (lane 4), or deprived of IL-3 for 18 hours (lane 5), followed by incubation with 10 mM DSS. The BAK-X complex was detected in whole cell lysates by an immunoblot developed with anti-BAK antibody.
Protein crosslinkers were used to search for a candidate protein that interacts with BAK at the mitochondria in viable cells. A ˜60 kD mobility-shifted complex immunoreactive with an antibody (Ab) to BAK was detected after treatment of purified mitochondria (FIG. 1A) or viable whole cells (FIG. 1B) with the crosslinker disuccinimidyl suberate (DSS). This presumed complex between BAK and a candidate ˜35 kD interacting protein was designated “BAK-X.” The ˜60 kD BAK-X complex was distinct in size as compared to BAK homo-oligomers detected by bismaleimidohexane (BMH) crosslinking (FIG. 1A). The same sized BAK complex was detected in multiple cell lines and in normal liver prior to death stimuli (FIG. 1C). The BAK-X complex was lost when mitochondria were treated with tBID (FIG. 1A, C) or cells were treated with death stimuli including TNFα, etoposide, or withdrawal of survival factor (FIG. 1B). Expression of BH3-only members BAD, BIM, or tBID killed cells and diminished the amount of BAK-X complex (FIG. 1D). […]

BAK-X complex [2] = biological target: T1, BAK-X complex (Mus musculus, UniProt O08734+Q60930); assay: BAK-X complex after retroviral transduction of BH3-only members in wt MEFs; assay type: cell-based; settings: 24 hours following retroviral transduction, DSS
T1 construct: isolation of mitochondria (50 μg) from wild-type (wt) mouse embryonic fibroblasts (MEFs); endogenous in cells; host or cells: mitochondria from wt MEFs
T1 sequence (O08734 2-209 limits assumed): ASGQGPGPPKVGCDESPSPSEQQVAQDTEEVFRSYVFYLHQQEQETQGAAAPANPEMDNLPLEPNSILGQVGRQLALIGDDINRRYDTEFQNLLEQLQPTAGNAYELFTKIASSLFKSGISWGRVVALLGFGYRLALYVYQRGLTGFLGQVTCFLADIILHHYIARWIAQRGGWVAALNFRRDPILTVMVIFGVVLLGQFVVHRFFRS
T1 sequence (Q60930 1-295): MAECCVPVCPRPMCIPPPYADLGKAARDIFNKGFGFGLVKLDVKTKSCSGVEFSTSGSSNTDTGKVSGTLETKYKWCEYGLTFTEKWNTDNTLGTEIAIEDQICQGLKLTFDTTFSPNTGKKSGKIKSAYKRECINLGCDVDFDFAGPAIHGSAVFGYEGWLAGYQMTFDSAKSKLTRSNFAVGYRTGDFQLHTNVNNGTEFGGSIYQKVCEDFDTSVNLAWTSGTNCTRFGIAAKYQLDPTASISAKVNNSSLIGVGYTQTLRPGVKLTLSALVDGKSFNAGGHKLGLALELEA
Procedure: FIG. 1D is a photograph depicting isolated mitochondria from wt MEFs, in which the isolated mitochondria were treated with DSS 24 hours following retroviral transduction of tBID, BIM, or BAD. The BAK-X complex was detected by an immunoblot developed with an anti-BAK antibody.
(§1) Murine vdac1, vdac2, N-terminal HA-tagged vdac2, N-terminal-HA tagged Bax or Bak, as well as wild type and mutant Bak (mBH1, W122A, G123E, R124A; mBH3, L75E) were cloned into the retroviral expression vector MSCV-IRES-GFP (pMIG). PcDNA3-tBID (wt and mutants) was described previously M. C. Wei et al., Genes Dev 14, 2060-71. (2000). Generation of amphotropic retroviruses and retroviral infection were described previously E. H. Cheng et al., Mol Cell 8, 705-11. (2001).
Protein crosslinkers were used to search for a candidate protein that interacts with BAK at the mitochondria in viable cells. […] Wei et al., Genes Dev 14, 2060-71. (2000).

wt MEFs = assay: Cell killing by expression of BH3-only members; assay type: cell-based, mouse; settings: retroviral expression
VDAC2 = biological target: T2, VDAC2 (Mus musculus, UniProt Q60930); assay: Anti-HA immunoprecipitation of HA-tagged VDAC2 with BH3-only molecules; assay type: binding; settings: for interaction with HA-tagged VDAC2 (co-immunoprecipitation): mitochondria, anti-HA immunoprecipitation, 1% CHAPS (or 0.2% NP40)
T2 construct: expressed in transfected cells; host or cells: vdac1 -/-, vdac3 -/- mouse fibroblasts; wt or vdac2 -/- MEFs; Bax, Bak doubly deficient MEFs (retrovirus pMIG)
T2 sequence (Q60930 1-295): T1 sequence (Q60930 1-295)
Text: as §1, with “(2001). Retroviral expression of each indicated protein was confirmed by immunoblot. […]” for “(2001).”
The strength of association between BIM-EL and VDAC2 was compared to the strength of the association, if any, between BIM-EL and BAK or BAX. Mitochondria isolated from Bax, Bak doubly deficient MEFs transduced with retrovirus expressing N-terminal HA-tagged BAX, BAK, or VDAC2 were solubilized in 1% CHAPS or 0.2% NP-40 buffer, followed by anti-HA immunoprecipitation. The immunoprecipitates were analyzed by an immunoblot developed with anti-BIM. […] These findings indicate that BH3-only competition for VDAC2 frees BAK, which, in the absence of its specific inhibitor VDAC2, is prone to auto-activating homo-oligomerization. […]

BAK-X complex [3] = biological target: T1, BAK-X complex; assay: DSS cross-linking of BAK-X complex in isolated mitochondria, anti-BAK immunoblot; assay type: biochemical; settings: liver mitochondria 50 μg, 5 μl in vitro transcribed-translated mutant tBID, 30° C. 30 min
Procedure: FIG. 1A is an illustration depicting isolation of mitochondria (50 μg) from wild-type (wt) mouse embryonic fibroblasts (MEFs). The isolated mitochondria were incubated with recombinant tBID protein (50 ng) at 30° C. for 30 min, followed by treatment with the cross-linkers disuccinimidyl suberate (DSS) (10 mM) or bismaleimidohexane (BMH) (10 mM) at room temperature for 30 minutes. Higher order BAK complexes were identified by immunoblot developed with an anti-BAK antibody.
FIG. 1C is an illustration depicting treatment of mitochondria (50 μg) isolated from mouse liver, Bal17, Jurkat, and FL5.12 cells with 50 ng tBID protein at 30° C. for 30 min, followed by DSS cross-linking. The BAK-X complex was detected by an immunoblot developed with anti-BAK antibody.
FIG. 1E is a photograph depicting isolated liver mitochondria (50 μg) which were incubated with 5 μl of in vitro transcribed-translated wt or mutant tBID at 30° C. for 30 min, followed by DSS cross-linking. The BAK-X complex was detected by an immunoblot developed with anti-BAK antibody. […]
Protein crosslinkers were used to search for a candidate protein that interacts with BAK at the mitochondria in viable cells. A ˜60 kD mobility-shifted complex immunoreactive with an antibody (Ab) to BAK was detected after treatment of purified mitochondria (FIG. 1A) or viable whole cells (FIG. 1B) with the crosslinker disuccinimidyl suberate (DSS). […]

Bax -/- MEFs = assay: Annexin-V cell death after retroviral expression of VDAC1 or VDAC2 in Bax -/- MEFs; assay type: cell-based, mouse; settings: Bax -/- cells, retroviral expression, 1.2 μM staurosporine or 10 μg/ml etoposide, Annexin-V
Procedure: (§2) FIG. 3A are two graphs illustrating Bax -/- or Bak -/- MEFs at 2 days following retroviral expression of VDAC1, VDAC2, or GFP (MIG vector control), wherein the Bax -/- or Bak -/- MEFs were treated with 1.2 μM staurosporine (STS). Cell death was quantitated by flow cytometric detection of Annexin-V staining at indicated time points. Values shown are mean ±1 SD of three independent experiments.
(§3) FIG. 3B is a histogram depicting Bax -/- or Bak -/- MEFs at 2 days following retroviral expression of VDAC2 or GFP (MIG vector control), wherein the Bax -/- or Bak -/- MEFs were infected with tBID-expressing retrovirus. Cell death was quantitated by flow cytometric detection of Annexin-V staining at 24 hr. Values shown are mean ±1 SD of three independent experiments.
as §2, with “6” for “3A”, “that depict” for “illustrating”, “10 μg/ml etoposide.” for “1.2 μM staurosporine (STS).”
(§4) Previous studies have shown that cells doubly deficient for BAX and BAK are resistant to intrinsic death stimuli, whereas cells singly deficient for BAX or BAK are still susceptible (M. C. Wei et al., Science 292, 727-30. (2001)). As VDAC2 interacts with BAK but not BAX, the ability of VDAC2 to modulate apoptosis mediated by BAK or BAX was tested. According to one hypothesis, VDAC2 might function as an inhibitor of BAK or VDAC2 itself might function as a proapoptotic factor once released from BAK. To address these alternatives VDAC 1 or VDAC2 was expressed in Bax -/- or Bak -/- singly deficient mouse embryonic fibroblasts (MEFs) followed by treatment with staurosporine or etoposide. […] Expression of VDAC2 inhibited tBID-induced apoptosis of Bax -/- cells but not Bak -/- cells, further supporting a selective role for VDAC2 in negatively regulating BAK-dependent apoptosis (FIG. 3B).

Bak -/- MEFs = assay: Annexin-V cell death after retroviral expression of VDAC1 or VDAC2 in Bak -/- MEFs; assay type: cell-based, mouse; settings: Bak -/- cells, retroviral expression, 1.2 μM staurosporine or 10 μg/ml etoposide, Annexin-V
Procedure: as §2, §3
as §2, with “6” for “3A”, “that depict” for “illustrating”, “10 μg/ml etoposide.” for “1.2 μM staurosporine (STS).”
as §4

For `COc1cc([C@@H]2c3cc4c(cc3[C@@H](O[C@@H]3O[C@@H]5CO[C@@H](C)O[C@H]5[C@H](O)[C@H]3O)[C@H]3COC(=O)[C@H]23)OCO4)cc(OC)c1O` [etoposide], the “BAK-X complex when cells were treated with death stimuli” value (BAK-X complex [1]) was “lost”.

TNFα was tested, and the “BAK-X complex when cells were treated with death stimuli” value (BAK-X complex [1]) was “lost”.

B1: BIM: BH3-only BCL-2 family member, retrovirally expressed (protein, UniProt O54918 1-196, looked up)
Bcl-2-like protein 11: MAKQPSDVSSECDREGGQLQPAERPPQLRPGAPTSLQTEPQGNPDGEGDRCPHGSPQGPLAPPASPGPFATRSPLFIFVRRSSLLSRSSSGYFSFDTDRSPAPMSCDKSTQTPSPPCQAFNHYLSAMASIRQSQEEPEDLRPEIRIAQELRRIGDEFNETYTRRVFANDYREAEDHPQMVILQLLRFIFRLVWRRH
B1 was tested, and the “amount of BAK-X complex” value (BAK-X complex [2]) was “diminished” and the “cell killing on expression” value (wt MEFs) was “killed cells”.

B2: BIM-EL: BH3-only molecule BIM-EL (protein)
chain: B1 Bcl-2-like protein 11
For B2, the “strength of association with VDAC2 compared to BAX or BAK” value (VDAC2; Bax, Bak doubly deficient MEFs with HA-tagged BAX, BAK or VDAC2, 1% CHAPS or 0.2% NP-40) was “associate more strongly with VDAC2 than BAX or BAK” and the “interaction with HA-tagged VDAC2 (co-immunoprecipitation)” value (VDAC2) was “strong interaction”.

B3: mIII.1: mutant tBID with BH3 mutation mIII.1, still capable of binding BAK (protein)
chain: GSQASRSFNQGRIEPDSESQEEIIHNIARHLAQIGDEAAHNIQPTLVRQLAAQFMNGSLSEEDKRNCLAKALDEVKTAFPRDMENDKAMLIMTMLLAKKVASHAPSLLRDVFHTTVNFINQNLFSYVRNLVRNEMD
With B3 the “dissociation of the BAK-X complex by mutant tBID” value (BAK-X complex [3]) was “caused dissociation”.

B4: mutant tBID mIII.4 (G94E) (other, UniProt P70444 60-195, looked up)
chain: B3 chain with G35E, A38M, A39D
notes: domain: p15 tBID; also called m111.4 mutant; m l 11.4
With B4 the “dissociation of the BAK-X complex by mutant tBID” value (BAK-X complex [3]) was “not” and the “interaction with HA-tagged VDAC2 (co-immunoprecipitation)” value (VDAC2) was “did not recognize VDAC2”.

B5: VDAC1: murine VDAC1 isoform, retrovirally expressed (protein)
chain: AVPPTYADLGKSARDVFTKGYGFGLIKLDLKTKSENGLEFTSSGSANTETTKVNGSLETKYRWTEYGLTFTEKWNTDNTLGTEITVEDQLARGLKLTFDSSFSPNTGKKNAKIKTGYKREHINLGCDVDFDIAGPSIRGALVLGYEGWLAGYQMNFETSKSRVTQSNFAVGYKTDEFQLHTNVNDGTEFGGSIYQKVNKKLETAVNLAWTAGNSNTRFGIAAKYQVDPDACFSAKVNNSSLIGLGYTQTLKPGIKLTLSALLDGKNVNAGGHKLGLGLEFQA
With B5 the “apoptosis after staurosporine or etoposide” value (Bax -/- MEFs) was “no substantial effect” and the “apoptosis after staurosporine or etoposide” value (Bak -/- MEFs) was “no substantial effect”.

B6: BAD: BH3-only BCL-2 family member, retrovirally expressed (protein, UniProt Q61337 1-204, looked up)
Bcl2-associated agonist of …: MGTPKQPSLAPAHALGLRKSDPGIRSLGSDAGGRRWRPAAQSMFQIPEFEPSEQEDASATDRGLGPSLTEDQPGPYLAPGLLGSNIHQQGRAATNSHHGGAGAMETRSRHSSYPAGTEEDEGMEEELSPFRGRSRSAPPNLWAAQRYGRELRRMSDEFEGSFKGLPRPKSAGTATQMRQSAGWTRIIQSWWDRNLGKGGSTPSQ
With B6 the “amount of BAK-X complex” value (BAK-X complex [2]) was “diminished” and the “cell killing on expression” value (wt MEFs) was “killed cells”.

Source: patent US20050085420A1, “Method of modulating apoptosis and compositions thereof” (priority 2003, published 2005)
